Test results taken from publication PMC12872393, “NCOA4 initiates ferritinophagy by avidly binding GATE16 using two short linear interaction motifs” (Life Science Alliance, 2026).

Molecular target: (GST-GATE16)2 (UniProt P60520)
Assay: SEC-MALS; 100 μl of 1 mg/ml protein on a WTC-030 column; 20 mM Tris, 150 mM NaCl, pH 7.5; 0.5 ml/min

“(GST-GATE16)2 (from UniProt P60520 1-117) (natural protein)” was tested, and the stoichiometry N was 2.
